From publication PMC8927147, “Global profiling of regulatory elements in the histone benzoylation pathway” (Nature Communications, 2022)

T1: H3K14bz peptide
T1 chain: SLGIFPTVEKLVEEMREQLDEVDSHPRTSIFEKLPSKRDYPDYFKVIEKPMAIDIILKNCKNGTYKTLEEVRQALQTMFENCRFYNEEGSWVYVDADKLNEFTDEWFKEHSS

T2: H3K27bz peptide
T2 chain: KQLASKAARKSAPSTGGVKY


Experiments:
H3K14bz peptide = target: T1, H3K14bz peptide; test: ITC; conditions: chain shown with the change
H3K27bz peptide = target: T2, H3K27bz peptide; test: ITC; conditions: chain shown with the change

Row | Binder | Kd (H3K14bz peptide) [µM] | Kd (H3K27bz peptide) [µM]
1 | TARKSTGGKAPRKQLASY [Sth1BD, P32597 A1329C] | 187 | 
2 | Sas5_(YEATS), Q99314 K64P (protein) DHSIEVTFRVKTQQVIIPEQNIRGNELPLRRWQMELLMLDATGKEVEPTILSKCIYHLHSSFPQPKRRLNSLPFFIKETGWGEFNLKIECFFIGNAGKFSIEHDLTFEDDAYAVDYTVDVPHEFSHLNSELSKYFDLP |  | 31.1
3 | Sas5_(YEATS), Q99314 L30H (protein) DHSIEVTFRVKTQQVIIPEQNIRGNELPHRRWQMELLMLDATGKEVEPTILSKCIYHLHSSFKQPKRRLNSLPFFIKETGWGEFNLKIECFFIGNAGKFSIEHDLTFEDDAYAVDYTVDVPHEFSHLNSELSKYFDLP |  | 369
